Measured values: article PMC7035337, “Binding of the periplakin linker requires vimentin acidic residues D176 and E187” (Communications Biology, 2020)
Substitutions are numbered along the chain they refer to. Names and notes keep the numbering of the source. Values joined by “and” are separate entries in the source; they are usually repeats but may differ in a detail not shown here. Equal entries are not always repeated.

T1: periplakin linker domain R1713E (human, UniProt O60437 1646-1756, R1713E)
T1 construct: human periplakin linker domain, residues K1646-K1756; also called Periplakin R1713E
T1 sequence (looked up): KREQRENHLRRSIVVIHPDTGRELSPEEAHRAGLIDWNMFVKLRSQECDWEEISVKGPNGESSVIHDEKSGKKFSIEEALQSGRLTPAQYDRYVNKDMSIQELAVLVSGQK

T2: periplakin linker domain R1737E/K1741E (human, UniProt O60437 1646-1756, R1737E | K1741E)
T2 construct: human periplakin linker domain, residues K1646-K1756
T2 sequence (looked up): T1 sequence (looked up) with E68R, R92E, K96E

T3: periplakin linker domain R1655E/R1656E (human, UniProt O60437 1646-1756, R1655E | R1656E)
T3 construct: human periplakin linker domain, residues K1646-K1756
T3 sequence (looked up): T1 sequence (looked up) with R10E, R11E, E68R

T4: periplakin linker domain K1687E/R1689E (human, UniProt O60437 1646-1756, K1687E | R1689E)
T4 construct: human periplakin linker domain, residues K1646-K1756
T4 sequence (looked up): T1 sequence (looked up) with K42E, R44E, E68R

T5: periplakin linker domain R1713E/K1714E (human, UniProt O60437 1646-1756, R1713E | K1714E)
T5 construct: human periplakin linker domain, residues K1646-K1756
T5 sequence (looked up): T1 sequence (looked up) with K69E

B1: desmoplakin linker domain (Q2454–N2565) E2495K/C2497R (domain or fragment, human, UniProt P15924 2454-2565, looked up)
chain: QTSQKNTLRKRRVVIVDPETNKEMSVQEAYKKGLIDYETFKKLREQECEWEEITITGSDGSTRVVLVDRKTGSQYDIQDAIDKGLVDRKFFDQYRSGSLSLTQFADMISLKN
notes: desmoplakin linker domain, human, residues Q2454-N2565
B2: periplakin linker domain, wild-type (residues K1646-K1756) (domain or fragment, human)
chain: T1 sequence (looked up) with E68R
notes: human periplakin linker domain, residues K1646-K1756; also called Periplakin Linker Wild-type
B3: periplakin linker domain (K1646–K1756), wild-type (domain or fragment, human, UniProt O60437 1646-1756, looked up)
chain: T1 sequence (looked up) with E68R
notes: periplakin linker domain, human, residues K1646-K1756; Vector pGEX-6P-1; also called wild-type periplakin linker; WT
B4: vimentinROD, wild-type (residues T99-I249, coils 1A and 1B) (domain or fragment)
chain: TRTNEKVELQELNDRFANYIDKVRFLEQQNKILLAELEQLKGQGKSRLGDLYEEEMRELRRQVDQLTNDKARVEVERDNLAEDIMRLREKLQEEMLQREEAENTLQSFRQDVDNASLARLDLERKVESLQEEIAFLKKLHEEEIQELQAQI
modifications: NT647 fluorescent dye (Monolith NT His-Tag Labelling Kit RED-tris-NTA)
notes: human vimentin, residues T99-I249; Non-cleavable His tag
B5: periplakin linker domain (K1646–K1756) R1737E/K1741E (domain or fragment, human, UniProt O60437 1646-1756, looked up)
chain: T1 sequence (looked up) with E68R, R92E, K96E
notes: periplakin linker domain, human, residues K1646-K1756; also called control double mutant
B6: periplakin linker domain (K1646–K1756) R1655E/R1656E (domain or fragment, human, UniProt O60437 1646-1756, looked up)
chain: T1 sequence (looked up) with R10E, R11E, E68R
notes: periplakin linker domain, human, residues K1646-K1756
B7: periplakin linker domain (K1646–K1756) K1687E/R1689E (domain or fragment, human, UniProt O60437 1646-1756, looked up)
chain: T1 sequence (looked up) with K42E, R44E, E68R
notes: as for B6
B8: periplakin linker domain (K1646–K1756) R1713E (domain or fragment, human, UniProt O60437 1646-1756, looked up)
chain: T1 sequence (looked up)
notes: periplakin linker domain, human, residues K1646-K1756; also called periplakin mutant R1713E; periplakin linker mutant R1713E
B9: periplakin linker domain (K1646–K1756) R1713E/K1714E (domain or fragment, human, UniProt O60437 1646-1756, looked up)
chain: T1 sequence (looked up) with K69E
notes: as for B6

Legend:
Conditions in all cases: both partners purified
[1] = target: T6, vimentin^ROD (residues T99–I249), wild-type (human, UniProt P08670 99-249, NT647 fluorescent dye (Monolith NT His-Tag Labelling Kit RED-tris-NTA)); assay: MST; 50 nM NT647-labelled vimentin^ROD, linker titrated 780 nM to 800 uM; 150 mM NaCl, 20 mM HEPES pH 7.5, 0.015% Tween 20; 25 C; one-site binding model
T6 construct: vimentin, human, coils 1A and 1B of the central rod domain, residues T99-I249; Non-cleavable His tag; also called wild-type vimentin^ROD
T6 sequence (P08670 99-249): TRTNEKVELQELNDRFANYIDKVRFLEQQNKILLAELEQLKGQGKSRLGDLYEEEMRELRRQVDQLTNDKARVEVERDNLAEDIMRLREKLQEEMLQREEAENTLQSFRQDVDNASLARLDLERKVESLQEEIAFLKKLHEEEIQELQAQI

[2] = target: B4; assay: MST; as a1 but 10 mM NaCl: 50 nM NT647-labelled vimentinROD, periplakin linker titrated; 25 °C; one-ligand binding model
[3] = target: T7, vimentinROD E180K (human, UniProt P08670 99-249, E180K, NT647 fluorescent dye (Monolith NT His-Tag Labelling Kit RED-tris-NTA)); assay: MST; 50 nM NT647-labelled vimentinROD, linker titrated 780 nM to 800 μM; 150 mM NaCl, 20 mM HEPES pH 7.5, 0.015% Tween 20; 25 °C; MST-on time 5 s; one-ligand binding model; single experiments or merged data sets
T7 construct: human vimentin, residues T99-I249
T7 sequence (P08670 99-249 E180K): as the sequence (P08670 99-249) above, with E82K counted along it

[4] = target: T8, vimentinROD E172K (human, UniProt P08670 99-249, E172K, NT647 fluorescent dye (Monolith NT His-Tag Labelling Kit RED-tris-NTA)); assay: as above
T8 construct: human vimentin, residues T99-I249
T8 sequence (P08670 99-249 E172K): as the sequence (P08670 99-249) above, with E74K counted along it

[5] = target: B4; assay: MST; as a1 but 50 mM NaCl: 50 nM NT647-labelled vimentinROD, periplakin linker titrated; 25 °C; one-ligand binding model
[6] = target: B4; assay: MST; 50 nM NT647-labelled vimentinROD, linker titrated 780 nM to 800 μM; 150 mM NaCl, 20 mM HEPES pH 7.5, 0.015% Tween 20; 25 °C; MST-on time 5 s; one-ligand binding model; single experiments or merged data sets
[7] = target: T9, vimentin^ROD (residues T99–I249) E229K (human, UniProt P08670 99-249, E229K, NT647 fluorescent dye (Monolith NT His-Tag Labelling Kit RED-tris-NTA)); assay: MST; 50 nM NT647-labelled vimentin^ROD, linker titrated 780 nM to 800 uM; 150 mM NaCl, 20 mM HEPES pH 7.5, 0.015% Tween 20; 25 C; one-site binding model
T9 construct: vimentin, human, coils 1A and 1B of the central rod domain, residues T99-I249
T9 sequence (P08670 99-249 E229K): as the sequence (P08670 99-249) above, with E131K counted along it

[8] = target: T10, vimentin^ROD (residues T99–I249) E172K (human, UniProt P08670 99-249, E172K, NT647 fluorescent dye (Monolith NT His-Tag Labelling Kit RED-tris-NTA)); assay: as above
T10 construct: vimentin, human, coils 1A and 1B of the central rod domain, residues T99-I249
T10 sequence (P08670 99-249 E172K): as the sequence (P08670 99-249) above, with E74K counted along it

[9] = target: T11, vimentin^ROD (residues T99–I249) D162K (human, UniProt P08670 99-249, D162K, NT647 fluorescent dye (Monolith NT His-Tag Labelling Kit RED-tris-NTA)); assay: as above
T11 construct: vimentin, human, coils 1A and 1B of the central rod domain, residues T99-I249
T11 sequence (P08670 99-249 D162K): as the sequence (P08670 99-249) above, with D64K counted along it

[10] = target: T12, vimentin^ROD (residues T99–I249) E180K (human, UniProt P08670 99-249, E180K, NT647 fluorescent dye (Monolith NT His-Tag Labelling Kit RED-tris-NTA)); assay: as above
T12 construct: vimentin, human, coils 1A and 1B of the central rod domain, residues T99-I249
T12 sequence (P08670 99-249 E180K): as the sequence (P08670 99-249) above, with E82K counted along it

[11] = target: T6, vimentin^ROD (residues T99–I249), …; assay: MST; as the standard MST assay (50 nM labelled vimentin^ROD, linker titrated) but in 10 mM NaCl
[12] = target: T1, periplakin linker domain R1713E; assay: MST; 50 nM NT647-labelled vimentinROD, linker titrated 780 nM to 800 μM; 150 mM NaCl, 20 mM HEPES pH 7.5, 0.015% Tween 20; 25 °C; MST-on time 5 s; one-ligand binding model; single experiments or merged data sets
[13] = target: T2, periplakin linker domain R1737E/K1741E; assay: as above
[14] = target: T3, periplakin linker domain R1655E/R1656E; assay: as above
[15] = target: T4, periplakin linker domain K1687E/R1689E; assay: as above
[16] = target: T5, periplakin linker domain R1713E/K1714E; assay: as above
[17] = target: T13, vimentin^ROD (residues T99–I249) D176K (human, UniProt P08670 99-249, D176K, NT647 fluorescent dye (Monolith NT His-Tag Labelling Kit RED-tris-NTA)); assay: MST; 50 nM NT647-labelled vimentin^ROD, linker titrated 780 nM to 800 uM; 150 mM NaCl, 20 mM HEPES pH 7.5, 0.015% Tween 20; 25 C; one-site binding model
T13 construct: vimentin, human, coils 1A and 1B of the central rod domain, residues T99-I249; also called D176K vimentin^ROD; vimentin mutant D176K
T13 sequence (P08670 99-249 D176K): as the sequence (P08670 99-249) above, with D78K counted along it

Binder: B1
Kd [1]: 600 ± 70 µM

Binder: B2
Kd [2]: 31 µM and 32 µM and 30.2 µM
Kd [3]: 8 µM and 4 µM and 3 µM and 5.7 µM
Kd [4]: 26 µM and 24 µM and 27 µM and 29 µM
Kd [5]: 59 µM and 69 µM and 71 µM and 66 µM
Kd [6]: 59 µM and 66 µM and 70 µM and 85 µM

Binder: B3
Kd [7]: 16 ± 2 µM
Kd [8]: 27 ± 4 µM
Kd [9]: 68 ± 4 µM
Kd [1]: 70.5 ± 3.8 µM
Kd [10]: 6 ± 2 µM
Kd [11]: 31 ± 2 µM

Binder: B4
Kd [12]: 210 µM and 160 µM and 240 µM
Kd [13]: 57 µM and 43 µM and 29 µM and 47.9 µM
Kd [14]: 351 µM and 382 µM and 444 µM
Kd [15]: 312 µM and 306 µM and 273 µM
Kd [16]: 143 µM and 145 µM and 123 µM

Binder: B5
Kd [1]: 48 ± 11 µM

Binder: B6
Kd [1]: 380 ± 51 µM

Binder: B7
Kd [1]: 300 ± 54 µM

Binder: B8
Kd [17]: 23 ± 4 µM
Kd [1]: 200 ± 29 µM

Binder: B9
Kd [1]: 135 ± 30 µM
